Assay results taken from paper PMC8005835.

Biological target: Von Willebrand factor (VWF) (human) (UniProt P04275)
Test: specific fVIII activity of the purified complex; heparin-Sepharose purified starting material, VWF 0.54 mg/ml and fVIII activity 38 U/ml (one-stage coagulation assay); mass ratio worked out with a cited specific activity of fVIII of ~5000 U/mg

blood coagulation factor VIII (fVIII) (natural protein)
percentage mass ratio of fVIII to VWF: 1%
